Data reported in patent US20250034594A1, “RNA-GUIDED GENOME RECOMBINEERING AT KILOBASE SCALE” (THE BOARD OF TRUSTEES OF THE LELAND STANFORD JUNIOR …, priority 2021, published 2025).

How the values were obtained:
Format in all cases: cell-based
gene editing with Cas9 = assay: Screen of 322 new SSAP proteins, gene editing activity with Cas9 (Table 5); set-up: Cas9 with SSAP activity: scale not given here
Method in brief: (§1)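 First, 322 new single-strand annealing proteins are identified from sequences. Next they are synthesized. Finally each is assayed for editing in combination with Cas9 and, separately, dCas9.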

gene editing with dCas9 = assay: Screen of 322 new SSAP proteins, gene editing activity with dCas9 (Table 5); set-up: dCas9 with SSAP activity: scale not given here
Method in brief: as §1

[1] = system: gene editing with Cas9 and dCas9; assay: Screen of 322 new SSAP proteins, activity across all experiments (Cas9 and dCas9, Table 5); set-up: scale not given here
Method in brief: as §1

Row | Molecule | Cas9 with SSAP activity (gene editing with Cas9) | Cas9 with SSAP activity (normalized) (gene editing with Cas9) | dCas9 with SSAP activity (gene editing with dCas9) | dCas9 with SSAP activity (normalized) (gene editing with dCas9) | Activity across all experiments [1]
1 | SSAP_53: SEQ ID NO: 222 (protein) STALTTLTSQLSQRFKLDGGEELLTTLKQTAFKGQVTDAQMTALLIVANQFGLNPWTKEIYAFPDKNGGIVPVVGVDGWARIINEHPQFDGMDFEMDGEQSCTCVIYRKDRTRPIRITEYMAECKKTGGGPWQSHPRRMLRHKAMIQCARMAFGFGGISDEDDAERIREKDITPQAEVVPKALEPYPADKFEENFEQWKSLIESGRRSADDVIAKIKSRNTMTDEQETRLRACGGEEGKTYENA | −1.644 | −1.327 | 0.088 | 0.036 | −0.778
2 | SSAP_195: SEQ ID NO: 364; Isoptericola dokdonensis (protein, listed as Isoptericola dokdonensis) TQDLATAIADQQPAQRRTAFDLVESMRGELHKALPEHASIDNFLRLALTELKMNPQLGNCSGESLLGALMTAARVGLEVGGPLGQFYLTPRRLKRDGWAVVPIVGYRGLITLARRAGVGQVNAVVVHEGDTFREGASSERGFFFDWEPAVERGKPVGALAAARLAGGDVQHRYLSLAEVHERRDRGGFKDGSNSPWATDYDAMVRKTALRALVPLLPQSTALSFAVQADEQVQRYDAGDIDIPALDETDTEDTK | −1.761 | −1.896 | −6.406 | −0.956 | −4.084
3 | SSAP_116: SEQ ID NO: 285; Lachnoclostridium sp. An14 (protein, listed as Lachnoclostridium sp.) TDVKQELERKVGKQDSTAVRLTKNMSIPDMIKALEPEIRRALPAVLTPERFLRMALSAVNNTPKLAECTPMSFIAAMMNAAQLGLEPNTPLGQAYLIPYKNKNQLECQFQIGYKGIIDLAYRTGQMQMIQAHAVHEFDDFEYEYGLNPKLIHRPGDGNRGEITYFYGLFKLVNGGFGFEVMNREAMEAFAQQYSQSYGSQYSPWVKNFEDMAKKTVIKKALKYGPVKAEFQKAISMDETIKTEIAVDMTEVQNEESE | −0.307 | −0.056 | −6.481 | – | −3.394
4 | SSAP_139: SEQ ID NO: 308; Butyrivibrio sp. FCS006 (protein, listed as Butyrivibrio sp.) PYLFGGQMKEQEIKNQLAAKAVETTNPKLSKNMNIADLIKAIEPEIKKALPTVITPERFTRIALSALNTTPKLAECSQMSFLAALMNAAQLGLEVNSPLGQAYLIPYNNKGKLECQFQIGYKGMLGLAYRNPEIQTIQAQVVYENDDFKYELGLDSKLYHKPSLSDRGKVRCYYALYKLRNGGYGFEVMSRRDVEEYAKRYSKVTDSLYSPWANNFDSMAKKTVIKQLLKYAPLRTDLEKAMSMDESIKTRVSVDMSEVENEETFDAEVEV | −6.481 | – | −6.481 | – | −6.481
5 | SSAP_200: SEQ ID NO: 369; Streptomyces (multispecies) (protein, listed as Streptomyces sp.) SQISNALATRDQGPAAQIEQYRDEYAALVPSHVNADQWVRLAVGAVRGDEKLMEAAQNDIGLFLREMKTAARLGLEPGTEQFYLTPRKSKPHGGRKVIKGIVGYQGIVELIYRAGAASTVIVEAVRENDTFRYVPGRDDRPVHEIDWFANDRGPLVGVYAYAVMKDGAVSKVVVLNRSRVMEFKAKSDSKHSEYSPWNTNEEAMWLKSAVRQLAKWVPTSAEYRRDQLLAHTETADSVVASVSTAPLPPQPSALDDADPDDDGPIDAELVD | −2.468 | −0.973 | −6.514 | −1.107 | −4.491
6 | SSAP_127: SEQ ID NO: 296; Solibacillus sp. R5-41 (protein, listed as Solibacillus sp.) ATSNELKKQAQGQVTAKPTTPEGSLNALLKKMGPEIQRALPKHMDADRIARIALTAVRTTPKLLECDQLSFVAALMQSAQLGVEPNTGLGQAYLIPYGGKVQFQLGYKGLIDLAVRSGQYKAIYAHEVYADDEFSFAYGLHKDLVHVPSANPSGDPIGYYAVYHLKNGGYDFVYWTRERIDIHSKAFSQAVQKGWTSPWKTNYDAMAKKTVLKEVLKYAPKSIEMQKVVEADETIKNEVAPDMSNVIDVTDYSILEDPQDVTDAQ | 0.427 | 0.447 | −6.524 | −1.210 | −3.048
7 | SSAP_212: SEQ ID NO: 381; Streptomyces sp. NRRL S-1824 (protein, listed as Streptomyces sp.) SEISNAIATRDQGPAAQIEAYRDEYAALVPSHINVDQWVRLAAGAIRGNEDLMEAARNDIGVFLRELKTAARLGLEPGTEQFYLTARKSKAHGYALIIKGIVGYQGIVELIYRAGAVSSVIVEAVRANDTFSYVPGRDDRPIHEIDWFGGDRGPLVGVYAYAVMKDGAVSKVVVMNHKRVMEIKARSDSKNSQYSPWNTDEESMWLKSAIRQLAKWVPTSAEYKSEQLRAHAEAIGELASVASAPLPPQPSVLDDVDPDDEGPIEGELVD | 0.448 | 0.210 | −6.577 | −1.182 | −3.064
8 | SSAP_148: SEQ ID NO: 317; Corynebacterium liangguodongii (protein, listed as Corynebacterium liangguodongii) KDLETRMAANQQPAQQRPTTLADQIRGMEQQFALAMPKGAEASQLVRDALTALRQAPKLAQCTPQSVLGSLMTCAQLGLRPGVLGHAYLIPFYDRRAGGLVAQLVIGYQGLVELAHRSGQIKSLIARTVYENDVFDVDYGLEDKLVHKPYMGGDKGQPIAYYAVAKFTTGGHAFYVMSHPEMLDYRARFAKSAERGPWVDNFEAMALKTCVRQLSKWMPKSTELATAIAADESVRVDLTPDAINYPEHVDGEVVDAQGTTEDTAGEGEQSA | −3.731 | −0.574 | −6.656 | −1.610 | −5.193
9 | SSAP_179: SEQ ID NO: 348; Acetoanaerobium noterae (protein, listed as Acetoanaerobium noterae) SNLKNELAKKANNSVTDGNKEPQTIKDWIKVMEPAIKKALPSVITPERFTRMALTAISVNPKLAECTPKSFMGSLMNAAQLGLEPNTPLGQAYLIPYKNKGNMEVQFQIGYKGLIELAYRSGEFANIYAKEVFENDEFEYEFGLEPVLKHKPASGNRGEVIAYYAVFKLTNGGFGFEVMSKEDITNHAKTYSQAYSSSYSPWSKNFDEMAKKTVLKKVLKYAPIKVEFVKQIVQDSTIKTEINSDMTEVESQNVFEAEETDYEVIDQEETK | −4.285 | −0.748 | −6.840 | −1.230 | −5.563
10 | SSAP_322: SEQ ID NO: 491; Candidatus Dependentiae bacterium (protein, Candidatus Dependentiae bacterium) CHVLNFQTDYKGEIKLAHKYSVRKIIDIYAKVVRDGDVLEIRVENGSQIVNFNPKVFNDGKIIGAFAVVKFVDGSLLYETMSKSEIDHTRVTFSKMPNGMAWKDSEGEMCRKTVLRRICKLIDLHFDSVEQEQAWNDGSDADLTKNEPVKPEIQNPFPTKAVEAVIVTEEEKLRKQLKDKDPTLQDWQIDALVREHKEANQ | 0.287 | 0.247 | 0.082 | 0.048 | 0.184
11 | SSAP_88: SEQ ID NO: 257; Raoultella planticola (protein, listed as Raoultella planticola) TKQPPIAKADLQKTQGTRVSSPKGNNDVISFINQPSMKEQLAAALPRHMTAERMIRIATTEIRKVPALASCDTMSFVSAIVQCSQLGLEPGGALGHAYLLPFGNKNEKSGKKNVQLIIGYRGMIDLARRSGQIASLSARVVREGDEFSYEFGLEEKLTHRPGENEDAPVTHVYAVARLKDGGTQFEVLTSKQIELVRSQSKAANSGPWVTHWEEMAKKTAIRRLFKYLPVSIEIQRAVSIDEKEALTIDPADTSVLTGEYSVINSESEE | −2.144 | −1.524 | −6.933 | −1.193 | −4.539
12 | SSAP_149: SEQ ID NO: 318; unclassified Oscillibacter (protein, listed as Oscillibacter sp.) KEGLIQGTQSAQAAKKGPATMQDYIKKMQGEIAKALPSVLTPERFTRITLSALSTNPKLAQTTPKSFLGAMMTAAQLGMEPNTPLGQAYLIPFKNHGVLECQFQLGYKGLIDLAYRSGEVSTIQAQTVYENDEFEYELGLEPKLHHVPAKGERGEPVYFYAVFRTKDGGYGFEVMSVDDVRTHAKKYSKAYSNGPWQTNFEEMAKKTVLKKALKYAPLKTEFMRGLTSDETIKTEISEDMYSVPDETVIEAEGYEVDGDTGEVIERPADGQ | −1.833 | −2.092 | −6.999 | −1.192 | −4.416
13 | SSAP_94: SEQ ID NO: 263; Providencia alcalifaciens (protein, listed as Providencia alcalifaciens) STPPLAKSDLQKTQGTEVKIKTNEQKLVEFINQPGMKAQLAAALPKHITSDRMIRIVSTEIRKTPSLANCDIQSFIGAVVQCSQLGLEPGNALGHAYLLPFGNGKSDNGQQNVQLIIGYRGMIDLARRSGQIISISARTVRQGDNFHFEYGLNENLTHIPEGNEDSPITHVYAVARLKDGGVQFEVMTYNQIEKVRNLSKAGKNGPWVTHWEEMAKKTVIRRLFKYLPVSIEMQKAVILDEKAEANIEQEHSAIFEAEFEEVDSNGN | −0.340 | −0.087 | −7.000 | −1.112 | −3.670
